Literature values, collected in paper PMC6953883, “Alterations of aqueous humor Aβ levels in Aβ-infused and transgenic mouse models of Alzheimer disease” (PLoS ONE, 2020).

Conditions: previous studies

Aβ: amyloid-β peptide of cited efflux and retention studies; Shibata et al. used Aβ(1-40)
half-time of Aβ efflux from CSF to blood: 34.63 min
